Our source for the Kd values is article PMC10932818 (Cancer immunology research, 2024).

The term Kd denotes the concentration at which binding is half-saturated.

The assay concerns the target recombinant Fc-tagged extracellular domain of LILRB3 (LILRB3-ECD) (human, UniProt O75022 24-443, glycosylated (production from mammalian NS0 cells)). Put plainly: BLI. On the technique in general: In BLI a coated tip is dipped into the sample, and binding shifts an interference pattern.

Sequence of recombinant Fc-tagged extracellular domain of LILRB3 (LILRB3-ECD) (O75022 24-443): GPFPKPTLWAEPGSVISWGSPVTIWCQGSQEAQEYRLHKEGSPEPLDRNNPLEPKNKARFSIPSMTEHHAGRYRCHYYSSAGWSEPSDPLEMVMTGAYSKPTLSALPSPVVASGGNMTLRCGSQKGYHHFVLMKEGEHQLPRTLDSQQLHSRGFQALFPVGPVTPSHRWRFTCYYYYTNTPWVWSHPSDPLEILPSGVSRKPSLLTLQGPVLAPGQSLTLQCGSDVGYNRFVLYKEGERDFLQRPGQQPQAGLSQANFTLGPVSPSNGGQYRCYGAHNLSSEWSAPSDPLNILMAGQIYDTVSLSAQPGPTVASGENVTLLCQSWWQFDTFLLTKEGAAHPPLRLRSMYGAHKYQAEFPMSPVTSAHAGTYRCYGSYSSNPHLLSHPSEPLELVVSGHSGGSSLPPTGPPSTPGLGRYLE

B1: recombinant human galectin-4 (Galectin-4-His) (natural protein, UniProt P56470 1-323, looked up)
chain: MAYVPAPGYQPTYNPTLPYYQPIPGGLNVGMSVYIQGVASEHMKRFFVNFVVGQDPGSDVAFHFNPRFDGWDKVVFNTLQGGKWGSEERKRSMPFKKGAAFELVFIVLAEHYKVVVNGNPFYEYGHRLPLQMVTHLQVDGDLQLQSINFIGGQPLRPQGPPMMPPYPGPGHCHQQLNSLPTMEGPPTFNPPVPYFGRLQGGLTARRTIIIKGYVPPTGKSFAINFKVGSSGDIALHINPRMGNGTVVRNSLLNGSWGSEEKKITHNPFGPGQFFDLSIRCGLDRFKVYANGQHLFDFAHRLSAFQRVDTLEIQGDVTLSYVQI
As for B1, the Kd was 44 nM.
